Target: wild type sortilin expressed in COS-7 cells (UniProt Q99523 78-831)
Sequence (Q99523 78-831): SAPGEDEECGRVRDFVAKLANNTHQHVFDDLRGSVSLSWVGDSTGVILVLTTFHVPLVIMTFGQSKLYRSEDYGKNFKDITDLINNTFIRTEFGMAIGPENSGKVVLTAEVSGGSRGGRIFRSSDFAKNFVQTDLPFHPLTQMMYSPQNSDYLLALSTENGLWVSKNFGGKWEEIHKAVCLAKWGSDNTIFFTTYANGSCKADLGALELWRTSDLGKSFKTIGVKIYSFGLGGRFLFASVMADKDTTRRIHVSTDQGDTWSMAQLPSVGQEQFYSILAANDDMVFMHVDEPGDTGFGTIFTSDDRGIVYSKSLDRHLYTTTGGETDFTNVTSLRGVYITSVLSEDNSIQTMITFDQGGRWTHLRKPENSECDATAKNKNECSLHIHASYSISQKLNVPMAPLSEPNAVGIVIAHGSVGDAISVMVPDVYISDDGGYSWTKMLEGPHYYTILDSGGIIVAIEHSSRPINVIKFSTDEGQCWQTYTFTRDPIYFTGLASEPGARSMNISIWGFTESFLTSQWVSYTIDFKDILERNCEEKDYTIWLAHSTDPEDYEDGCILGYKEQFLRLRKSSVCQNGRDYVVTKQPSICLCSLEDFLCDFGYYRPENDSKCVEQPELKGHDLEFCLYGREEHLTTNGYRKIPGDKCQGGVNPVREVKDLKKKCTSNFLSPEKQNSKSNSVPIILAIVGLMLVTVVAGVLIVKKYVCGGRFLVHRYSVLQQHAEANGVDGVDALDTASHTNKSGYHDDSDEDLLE

- Kd: 3 nM
B1: alkaline phosphatase tagged progranulin C100 (granulin E and its flanking region, aa 494-593) (domain or fragment)
chain: SCEKEVVSAQPATFLARSPHVGVKDVECGEGHFCHDNQTCCRDNRQGWACCPYRQGVCCADRRHCCPAGFRCAARGTKCLRREAPRWDAPLRDPALRQLL
